The record followed here is publication PMC9352680, “A comprehensive thermodynamic model for RNA binding by the Saccharomyces cerevisiae Pumilio protein PUF4”.

The chains are these.
T1: PUF4 RNA-binding domain (Saccharomyces cerevisiae, UniProt P25339 537-888)
T1 sequence: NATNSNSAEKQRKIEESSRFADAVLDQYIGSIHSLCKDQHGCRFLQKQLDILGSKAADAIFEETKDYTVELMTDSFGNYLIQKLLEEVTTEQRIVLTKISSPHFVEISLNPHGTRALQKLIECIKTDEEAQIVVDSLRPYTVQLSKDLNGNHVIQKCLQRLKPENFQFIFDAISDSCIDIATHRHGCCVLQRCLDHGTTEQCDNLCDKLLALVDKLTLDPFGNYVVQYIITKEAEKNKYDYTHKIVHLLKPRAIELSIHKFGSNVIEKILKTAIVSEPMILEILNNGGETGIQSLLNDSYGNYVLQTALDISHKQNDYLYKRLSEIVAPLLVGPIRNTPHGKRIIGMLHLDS

The target of the data set is T1, PUF4 RNA-binding domain. Briefly: Mg; RNA-MaP; 20 mM Na-HEPES pH 7.4, 30 mM KOAc, 0.75 mM MgCl2, 0.1% Tween-20, 5% glycerol, 0.1 mg/mL BSA, 2 mM DTT; 25 C; 0.0125-409.6 nM protein. To be noted: tags: N-His6-TEV cleaved; C-SNAP kept, Cy3B-labelled; label: tethered on chip by stalled RNA polymerase.
A word on the Kd: it is the concentration at which binding is half-saturated. Read a high Kd as a looser complex. Molecule ACAAACCCUAUAUUAUUAAUACAAAC (ssRNA) [Id_ii_S3_P5E.3_K5.2_C5.2_[T-1C]_H5.2_A5.1_F5.1_T5.2_[T11A]_[A12T]] registered a Kd of 464 nM.
The molecule ACAAACAUUAUAUUAUUACAACAAAC (ssRNA) [Id_ii_S3_P5E.3_K5.2_C5.2_[C-2A]_H5.2_A5.1_F5.1_T5.2_[T11C]] had a Kd of 464 nM.
To ACAAACCUUAUAUUAUUAUUACAAAC (ssRNA) [Id_ii_S3_P5E.3_K5.2_C5.2_H5.2_A5.1_F5.1_T5.2_[A12T]] belongs 208 nM; to ACAAACCUUAUAUUAUUAGAACAAAC (ssRNA) [Id_ii_S3_P5E.3_K5.2_C5.2_H5.2_A5.1_F5.1_T5.2_[T11G]], 108 nM; to ACAAACCAUAUAUUAUUAAUACAAAC (ssRNA) [Id_ii_S3_P5E.3_K5.2_C5.2_[T-1A]_H5.2_A5.1_F5.1_T5.2_[T11A]_[A12T]], 157 nM.
In the case of ACAAACUUACACUUAUUAACACAAAC (ssRNA) [Id_ii_S3_P5E.4_K5.3_C5.2_[C-2T]_H5.3_A5.1_F5.1_T5.2_[T11A]_[A12C]], the Kd is over 2300 nM.
Take UCUCUUUCUCUUAUUAUCUCUU (ssRNA) [Ib_S1_P5E.1_K5.1_C5.1_H5.1_[G2C]_[A4C]_A5.1_F5.1_T5.1]: the Kd is over 2300 nM.
Molecule ACAAACGCACACUUAUUAAAACAAAC (ssRNA) [Id_ii_S3_P5E.4_K5.3_C5.2_[C-2G]_[T-1C]_H5.3_A5.1_F5.1_T5.2_[T11A]] returned a Kd of over 2300 nM.
The molecule ACAAACGCACACUUAUUAUGACAAAC (ssRNA) [Id_ii_S3_P5E.4_K5.3_C5.2_[C-2G]_[T-1C]_H5.3_A5.1_F5.1_T5.2_[A12G]] returned a Kd of over 2300 nM.
Regarding ACAAACCCUAUAUUAUUAACACAAAC (ssRNA) [Id_ii_S3_P5E.3_K5.2_C5.2_[T-1C]_H5.2_A5.1_F5.1_T5.2_[T11A]_[A12C]], the Kd is 452 nM.
Molecule ACAAACCAUAUAUUAUUACUACAAAC (ssRNA) [Id_ii_S3_P5E.3_K5.2_C5.2_[T-1A]_H5.2_A5.1_F5.1_T5.2_[T11C]_[A12T]] displayed a Kd of 168 nM.
To ACAAACGUACACUUAUUAAUACAAAC (ssRNA) [Id_ii_S3_P5E.4_K5.3_C5.2_[C-2G]_H5.3_A5.1_F5.1_T5.2_[T11A]_[A12T]] belongs 707 nM; to ACAAACACACACUUAUUACUACAAAC (ssRNA) [Id_ii_S3_P5E.4_K5.3_C5.2_[C-2A]_[T-1C]_H5.3_A5.1_F5.1_T5.2_[T11C]_[A12T]], over 2300 nM.
To ACAAACGUACACUUAUUACCACAAAC (ssRNA) [Id_ii_S3_P5E.4_K5.3_C5.2_[C-2G]_H5.3_A5.1_F5.1_T5.2_[T11C]_[A12C]] belongs 972 nM; to ACAAACGUACACUUAUUAUCACAAAC (ssRNA) [Id_ii_S3_P5E.4_K5.3_C5.2_[C-2G]_H5.3_A5.1_F5.1_T5.2_[A12C]], 1180 nM; to ACAAACGCACACUUAUUAGAACAAAC (ssRNA) [Id_ii_S3_P5E.4_K5.3_C5.2_[C-2G]_[T-1C]_H5.3_A5.1_F5.1_T5.2_[T11G]], over 2300 nM.
Molecule ACAAACGGACACUUAUUAAGACAAAC (ssRNA) [Id_ii_S3_P5E.4_K5.3_C5.2_[C-2G]_[T-1G]_H5.3_A5.1_F5.1_T5.2_[T11A]_[A12G]] gave a Kd of over 2300 nM.
To ACAAACCAUAUAUUAUUAACACAAAC (ssRNA) [Id_ii_S3_P5E.3_K5.2_C5.2_[T-1A]_H5.2_A5.1_F5.1_T5.2_[T11A]_[A12C]] belongs 201 nM; to ACAAACGCACACUUAUUAAGACAAAC (ssRNA) [Id_ii_S3_P5E.4_K5.3_C5.2_[C-2G]_[T-1C]_H5.3_A5.1_F5.1_T5.2_[T11A]_[A12G]], over 2300 nM.
Consider ACAAACCAUAUAUUAUUAAAACAAAC (ssRNA) [Id_ii_S3_P5E.3_K5.2_C5.2_[T-1A]_H5.2_A5.1_F5.1_T5.2_[T11A]], for which the affinity, expressed as Kd, was 631 nM.
As for ACAAACAGACACUUAUUAUUACAAAC (ssRNA) [Id_ii_S3_P5E.4_K5.3_C5.2_[C-2A]_[T-1G]_H5.3_A5.1_F5.1_T5.2_[A12T]], the Kd is over 2300 nM.
To ACAAACAUUAUAUUAUUAGAACAAAC (ssRNA) [Id_ii_S3_P5E.3_K5.2_C5.2_[C-2A]_H5.2_A5.1_F5.1_T5.2_[T11G]] belongs 144 nM; to ACAAACGCACACUUAUUAUAACAAAC (ssRNA) [Id_ii_S3_P5E.4_K5.3_C5.2_[C-2G]_[T-1C]_H5.3_A5.1_F5.1_T5.2], over 2300 nM; to ACAAACUCACACUUAUUAAUACAAAC (ssRNA) [Id_ii_S3_P5E.4_K5.3_C5.2_[C-2T]_[T-1C]_H5.3_A5.1_F5.1_T5.2_[T11A]_[A12T]], over 2300 nM.
To ACAAACUGACACUUAUUACCACAAAC (ssRNA) [Id_ii_S3_P5E.4_K5.3_C5.2_[C-2T]_[T-1G]_H5.3_A5.1_F5.1_T5.2_[T11C]_[A12C]] belongs over 2300 nM; to ACAAACGAACACUUAUUAACACAAAC (ssRNA) [Id_ii_S3_P5E.4_K5.3_C5.2_[C-2G]_[T-1A]_H5.3_A5.1_F5.1_T5.2_[T11A]_[A12C]], over 2300 nM.
To ACAAACCUUAUAUUAUUAAUACAAAC (ssRNA) [Id_ii_S3_P5E.3_K5.2_C5.2_H5.2_A5.1_F5.1_T5.2_[T11A]_[A12T]] belongs 459 nM.
In turn, ACAAACCCUAUAUUAUUAAAACAAAC (ssRNA) [Id_ii_S3_P5E.3_K5.2_C5.2_[T-1C]_H5.2_A5.1_F5.1_T5.2_[T11A]] yielded a Kd of 673 nM.
The molecule ACAAACAGACACUUAUUACCACAAAC (ssRNA) [Id_ii_S3_P5E.4_K5.3_C5.2_[C-2A]_[T-1G]_H5.3_A5.1_F5.1_T5.2_[T11C]_[A12C]] yielded a Kd of over 2300 nM.
On to ACAAACUCACACUUAUUACAACAAAC (ssRNA) [Id_ii_S3_P5E.4_K5.3_C5.2_[C-2T]_[T-1C]_H5.3_A5.1_F5.1_T5.2_[T11C]], for which the Kd is over 2300 nM.
With ACAAACCCUAUAUUAUUACCACAAAC (ssRNA) [Id_ii_S3_P5E.3_K5.2_C5.2_[T-1C]_H5.2_A5.1_F5.1_T5.2_[T11C]_[A12C]], the Kd was 448 nM.
To ACAAACUGACACUUAUUAUAACAAAC (ssRNA) [Id_ii_S3_P5E.4_K5.3_C5.2_[C-2T]_[T-1G]_H5.3_A5.1_F5.1_T5.2] belongs over 2300 nM.
In the case of ACAAACGUACACUUAUUAUUACAAAC (ssRNA) [Id_ii_S3_P5E.4_K5.3_C5.2_[C-2G]_H5.3_A5.1_F5.1_T5.2_[A12T]], binding was put at a Kd of 702 nM.
To ACAAACUGACACUUAUUACGACAAAC (ssRNA) [Id_ii_S3_P5E.4_K5.3_C5.2_[C-2T]_[T-1G]_H5.3_A5.1_F5.1_T5.2_[T11C]_[A12G]] belongs over 2300 nM.
To ACAAACUCACACUUAUUACGACAAAC (ssRNA) [Id_ii_S3_P5E.4_K5.3_C5.2_[C-2T]_[T-1C]_H5.3_A5.1_F5.1_T5.2_[T11C]_[A12G]] belongs over 2300 nM; to ACAAACUUACACUUAUUACGACAAAC (ssRNA) [Id_ii_S3_P5E.4_K5.3_C5.2_[C-2T]_H5.3_A5.1_F5.1_T5.2_[T11C]_[A12G]], over 2300 nM; to ACAAACUUACACUUAUUAUCACAAAC (ssRNA) [Id_ii_S3_P5E.4_K5.3_C5.2_[C-2T]_H5.3_A5.1_F5.1_T5.2_[A12C]], over 2300 nM.
To ACAAACCUUAUAUUAUUACGACAAAC (ssRNA) [Id_ii_S3_P5E.3_K5.2_C5.2_H5.2_A5.1_F5.1_T5.2_[T11C]_[A12G]] belongs 406 nM; to ACAAACUCACACUUAUUAAAACAAAC (ssRNA) [Id_ii_S3_P5E.4_K5.3_C5.2_[C-2T]_[T-1C]_H5.3_A5.1_F5.1_T5.2_[T11A]], over 2300 nM; to ACAAACCGUAUAUUAUUAGAACAAAC (ssRNA) [Id_ii_S3_P5E.3_K5.2_C5.2_[T-1G]_H5.2_A5.1_F5.1_T5.2_[T11G]], 15.8 nM.
ACAAACUCACACUUAUUAGCACAAAC (ssRNA) [Id_ii_S3_P5E.4_K5.3_C5.2_[C-2T]_[T-1C]_H5.3_A5.1_F5.1_T5.2_[T11G]_[A12C]]: the dissociation constant (Kd) was over 2300 nM.
To ACAAACAGACACUUAUUAGAACAAAC (ssRNA) [Id_ii_S3_P5E.4_K5.3_C5.2_[C-2A]_[T-1G]_H5.3_A5.1_F5.1_T5.2_[T11G]] belongs over 2300 nM; to ACAAACGAACACUUAUUAUCACAAAC (ssRNA) [Id_ii_S3_P5E.4_K5.3_C5.2_[C-2G]_[T-1A]_H5.3_A5.1_F5.1_T5.2_[A12C]], over 2300 nM.
To ACAAACUGACACUUAUUAAGACAAAC (ssRNA) [Id_ii_S3_P5E.4_K5.3_C5.2_[C-2T]_[T-1G]_H5.3_A5.1_F5.1_T5.2_[T11A]_[A12G]] belongs over 2300 nM.
To UCUCUUUCUGUUAUUAUCUCUU (ssRNA) [Ib_S1_P5E.1_K5.1_C5.1_H5.1_[G2C]_[A4G]_A5.1_F5.1_T5.1] belongs over 2300 nM.
In turn, ACAAACGGACACUUAUUAGCACAAAC (ssRNA) [Id_ii_S3_P5E.4_K5.3_C5.2_[C-2G]_[T-1G]_H5.3_A5.1_F5.1_T5.2_[T11G]_[A12C]] returned a Kd of over 2300 nM.
To ACAAACCAUAUAUUAUUACAACAAAC (ssRNA) [Id_ii_S3_P5E.3_K5.2_C5.2_[T-1A]_H5.2_A5.1_F5.1_T5.2_[T11C]] belongs 240 nM.
To ACAAACCCUAUAUUAUUACUACAAAC (ssRNA) [Id_ii_S3_P5E.3_K5.2_C5.2_[T-1C]_H5.2_A5.1_F5.1_T5.2_[T11C]_[A12T]] belongs 400 nM; to UCUCUUCGUGUUAUUAUCUCUU (ssRNA) [Ib_S1_P5E.1_K5.1_C5.1_H5.1_[T1C]_[A4G]_A5.1_F5.1_T5.1], 2300 nM.
To ACAAACAGACACUUAUUACAACAAAC (ssRNA) [Id_ii_S3_P5E.4_K5.3_C5.2_[C-2A]_[T-1G]_H5.3_A5.1_F5.1_T5.2_[T11C]] belongs over 2300 nM.
ACAAACGGACACUUAUUACAACAAAC (ssRNA) [Id_ii_S3_P5E.4_K5.3_C5.2_[C-2G]_[T-1G]_H5.3_A5.1_F5.1_T5.2_[T11C]] gave a Kd of over 2300 nM.
To ACAAACAGACACUUAUUAUCACAAAC (ssRNA) [Id_ii_S3_P5E.4_K5.3_C5.2_[C-2A]_[T-1G]_H5.3_A5.1_F5.1_T5.2_[A12C]] belongs over 2300 nM.
In the case of UCUCUUAGUGUUAUUAUCUCUU (ssRNA) [Ib_S1_P5E.1_K5.1_C5.1_H5.1_[T1A]_[A4G]_A5.1_F5.1_T5.1], the Kd is over 2300 nM.
Molecule ACAAACCUUAUAUUAUUAGCACAAAC (ssRNA) [Id_ii_S3_P5E.3_K5.2_C5.2_H5.2_A5.1_F5.1_T5.2_[T11G]_[A12C]] returned a Kd of 59.3 nM.
The molecule UCUCUUUCUUUUAUUAUCUCUU (ssRNA) [Ib_S1_P5E.1_K5.1_C5.1_H5.1_[G2C]_[A4T]_A5.1_F5.1_T5.1] returned a Kd of over 2300 nM.
To ACAAACUAACACUUAUUACAACAAAC (ssRNA) [Id_ii_S3_P5E.4_K5.3_C5.2_[C-2T]_[T-1A]_H5.3_A5.1_F5.1_T5.2_[T11C]] belongs over 2300 nM; to ACAAACUCACACUUAUUAUGACAAAC (ssRNA) [Id_ii_S3_P5E.4_K5.3_C5.2_[C-2T]_[T-1C]_H5.3_A5.1_F5.1_T5.2_[A12G]], over 2300 nM.
